Source: FireProtDB (doi:10.1021/bi00164a007)

Details: Saccharomyces cerevisiae (strain ATCC 204508 / S288c), CD, reversible: yes; for denaturant m value / denaturant midpoint (higher = more stable) / unfolding free energy: 27 °C, GdnHCl
[1] = pH 4.6, glycine 40 mM, structure 1YCC
[2] = pH 4.6, Thermal, Sodium acetate 50 mM, structure 1YCC
[3] = pH 6, Thermal, Sodium phosphate 50 mM, structure 1YCC
[4] = pH 7.2, Potassium phosphate 50 mM, structure 1YCC
[5] = pH 6, Thermal, Sodium phosphate 50 mM
[6] = pH 7.2, Potassium phosphate 50 mM

Chain of Cytochrome c isoform 1 V26C, P00044 (P00044 whole entry V26C, canonical isoform): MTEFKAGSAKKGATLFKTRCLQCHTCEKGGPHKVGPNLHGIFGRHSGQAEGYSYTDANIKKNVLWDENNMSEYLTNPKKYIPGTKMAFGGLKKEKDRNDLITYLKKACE
Chain of Cytochrome c isoform 1 wild type, P00044 (P00044 whole entry, canonical isoform): as the sequence (P00044 whole entry V26C, canonical isoform) above, with C26V counted along it

Substance	denaturant m value [1] [kcal/mol/M]	denaturant midpoint (higher = more stable) [1] [M]	unfolding free energy [1] [kcal/mol]	Tm [2] [°C]	unfolding enthalpy (van 't Hoff) [2] [kcal/mol]	Tm [3] [°C]	change of melting temperature, mutant - wild type (higher = more stable) [3] [°C]	unfolding enthalpy (van 't Hoff) [3] [kcal/mol]	denaturant m value [4] [kcal/mol/M]	denaturant midpoint (higher = more stable) [4] [M]	unfolding free energy [4] [kcal/mol]	Tm [5] [°C]	unfolding enthalpy (van 't Hoff) [5] [kcal/mol]	denaturant m value [6] [kcal/mol/M]	denaturant midpoint (higher = more stable) [6] [M]	unfolding free energy [6] [kcal/mol]
Cytochrome c isoform 1 V26C, P00044	2.7	1.1	2.9	53.4	64.5	58.5	6.8	63.8	2.6	1.2	3					
Cytochrome c isoform 1 wild type, P00044												51.7	84.5	4.6	0.9	4.1
